The text below walks through data of article PMC10907699, “The IRE1β-mediated unfolded protein response is repressed by the chaperone AGR2 in mucin producing cells” (The EMBO Journal, 2023).

First the molecules themselves.
T1: MBP-hIRE1bLD (35-428)-NanoLuc-H6 (human, UniProt Q76MJ5 35-428)
T1 construct: IRE1β (ERN2) luminal domain, human, residues 35-428; No step that cleaves MBP is described; also called IRE1β-nluc donor; IRE1β LD-nanoluc; source: T7 Express lysY/Iq E. coli, purified (Ni-NTA, amylose resin, two gel filtrations); not shown: NanoLuc (complete, WT), C-terminal, kept
T1 sequence (looked up): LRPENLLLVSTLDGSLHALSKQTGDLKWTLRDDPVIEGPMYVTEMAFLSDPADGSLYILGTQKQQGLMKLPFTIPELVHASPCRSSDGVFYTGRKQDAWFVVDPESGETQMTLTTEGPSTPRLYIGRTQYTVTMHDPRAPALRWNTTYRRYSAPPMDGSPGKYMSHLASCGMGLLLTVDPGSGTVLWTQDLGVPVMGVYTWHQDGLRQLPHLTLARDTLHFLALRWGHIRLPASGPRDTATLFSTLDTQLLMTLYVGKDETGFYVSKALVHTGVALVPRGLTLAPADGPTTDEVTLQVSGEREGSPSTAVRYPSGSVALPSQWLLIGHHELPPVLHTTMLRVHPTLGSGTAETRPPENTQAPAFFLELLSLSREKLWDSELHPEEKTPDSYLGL

T2: mouse AGR2 (21-175) C81E (mouse, UniProt O88312 21-175, C81E)
T2 sequence: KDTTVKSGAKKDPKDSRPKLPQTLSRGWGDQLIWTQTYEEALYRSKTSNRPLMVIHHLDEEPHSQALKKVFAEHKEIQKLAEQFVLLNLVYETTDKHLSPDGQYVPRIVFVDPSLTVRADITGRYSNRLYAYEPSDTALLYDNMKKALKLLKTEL

T3: mouse AGR2 (21-175) C81S (mouse, UniProt O88312 21-175, C81S)
T3 sequence: T2 sequence with E61S

B1: MBP-hIRE1b_LD_(35-428)-AviTag-His7 (domain or fragment, human, UniProt Q76MJ5 35-428, looked up)
chain: T1 sequence (looked up)
modifications: biotin on the AviTag (endogenous biotinylation of a fraction of the protein in E. coli)
notes: IRE1β (ERN2) luminal domain, human, residues 35-428; No step that cleaves MBP is described; also called IRE1β LD; IRE1β LD probe; source: T7 Express lysY/Iq E. coli, purified (Ni-NTA, amylose resin, two gel filtrations); not shown: AviTag, C-terminal, kept
B2: MBP-hIRE1β LD-mGL-AviTag-His (domain or fragment, human, UniProt Q76MJ5 35-428, looked up)
chain: T1 sequence (looked up)
notes: IRE1β (ERN2) luminal domain, human; C-terminal mGL inserted in the MBP-hIRE1bLD of UK2796 (residues 35-428); also called GFP-tagged IRE1β LD; IRE1β LD-mGL acceptor; source: T7 Express lysY/Iq E. coli, purified (Ni-NTA, amylose resin, two gel filtrations); not shown: MBP, N-terminal, kept; mGL (monomeric Green Lantern), C-terminal, kept
B3: mouse AGR2 (21-175) C81E (natural protein, UniProt O88312 21-175, looked up)
chain: T2 sequence
notes: AGR2, mouse, residues 21-175, active site mutant C81E; also called AGR2 C81E; UK2835; source: T7 Express lysY/Iq E. coli, purified (Ni-NTA, SENP2 cleavage, reverse Ni-NTA); not shown: His6, N-terminal, cleaved; SUMO3, N-terminal, cleaved
B4: mouse AGR2 (21-175) C81S (natural protein, UniProt O88312 21-175, looked up)
chain: T2 sequence with E61S
notes: AGR2, mouse, residues 21-175, active site mutant C81S; also called AGR2 C81S; UK2795; source: T7 Express lysY/Iq E. coli, purified (Ni-NTA, SENP2 cleavage, reverse Ni-NTA); not shown: His6, N-terminal, cleaved; SUMO3, N-terminal, cleaved

For data set [1], the target named is MBP-hIRE1β LD ∆C-mGL-AviTag-His (human) (UniProt Q76MJ5). Kind of data set: mass photometry (ISCAT); IRE1β LD wt or ∆C alone at the indicated concentrations; HK buffer, room temperature (~21 °C).
The target of the next data set is AGR2 (Homo sapiens) (UniProt O95994). The conditions noted are these: cited from earlier work.
Data set [2] addresses T1, MBP-hIRE1bLD (35-428)-NanoLuc-H6. Nature of the data set: FRET or BRET; kinetic readings: AGR2 variants or unlabelled IRE1β LD competitor added to the pre-formed IRE1β LD-nanoluc / IRE1β LD-mGL BRET pair; BRET ratio every 20 s, one-phase exponential decay. The settings on record: both partners purified.
A further data set addresses T2, mouse AGR2 (21-175) C81E. Kind of data set: BLI; K1/2 max from steady-state one-site fit.
In a further data set the target is T3, mouse AGR2 (21-175) C81S. Nature of the data set: BLI; K1/2 max from steady-state one-site fit.
Data set [3] concerns the molecule itself. Kind of data set: mass photometry (ISCAT); IRE1β LD wt or ∆C alone at the indicated concentrations; HK buffer, room temperature (~21 °C).
Data set [4] has as its target B1. Nature of the data set: BLI; biotinylated IRE1 LD loaded on streptavidin sensors, exposed sequentially to increasing concentrations of AGR2; 30 °C; HK buffer (50 mM HEPES-KOH pH 7.4, 150 mM KCl) with 0.05% Triton X-100 and 1 mM TCEP; signal against AGR2 concentration fitted to a one-site specific binding function (the methods call the result a KD of binding). The conditions noted are these: both partners purified.

Substitutions are numbered along the chain they refer to. Names and notes keep the numbering of the source.

The molecule “MBP-hIRE1β LD ∆C-mGL-AviTag-His (from UniProt Q76MJ5 35-428) (domain or fragment)” gave a stoichiometry N in data set [1] of 2.

In the case of AGR2 (from UniProt O95994), the Kd in the data set with AGR2 (Homo sapiens) is 8 µM.

Consider B1, for which the binding result in data set [2] was “binds”. For the same molecule, the Kd is 78.5 µM with mouse AGR2 (21-175) C81E and 124 µM in the data set with mouse AGR2 (21-175) C81S.

For the molecule B2, in data set [3], the “stoichiometry N” value is 2.

Consider B3, for which the binding result in data set [4] is given as “binds”.

Take B4: the binding result in data set [4] is reported as “binds”.
